Laboratory results from paper PMC4931251, “Characterization of the targeting signal in mitochondrial β-barrel proteins” (Nature Communications, 2016).

Molecular target: T1, cytosolic receptor domain of rat Tom20 (dTom20), uniformly 15N-labelled (Rattus norvegicus, UniProt Q62760 51-145, uniformly [15N]-labelled)
T1 construct: Tom20 from Rattus norvegicus, cytosolic receptor domain, residues 51-145; Cloned into pET-22b without the stop codon; also called [15N]-dTom20; rat dTom20; source: E. coli BL21(DE3), purified (Ni-NTA, gel filtration on Superdex 200)
T1 sequence (looked up): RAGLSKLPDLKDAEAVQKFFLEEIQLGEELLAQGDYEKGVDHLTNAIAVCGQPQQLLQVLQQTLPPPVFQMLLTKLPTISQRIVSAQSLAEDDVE
Assay: NMR titration; [1H,15N]-HSQC of 210 μM [15N]-dTom20 in 20 mM KPi pH 6.4, 50 mM KCl, 5% DMSO; aliquots of 10 mM unlabelled cyclic peptide in DMSO added (two molar excess); DMSO effect subtracted
Conditions: both partners purified

binding result: binds
B1: cyclic β-hairpin peptide derived from human voltage-dependent anion channel 1 (hVDAC1) (peptide)
peptide: LTLSALLDGKNVNAGGHKLGLGLPP
modifications: head-to-tail cyclised: the new C terminus (after the two added Pro) covalently linked to the N terminus
notes: human voltage-dependent anion channel 1 (hVDAC1), last two β-strands and the loop between them, a.a; L257 to L279; residue numbers correspond to full-length hVDAC1; two Pro residues added to the C terminus (told in words); Measured mass [M+H]+ = 2,436.48; also called cyclic peptide; source: synthetic peptide (Fmoc/tBu chemistry, cyclised, purified by RP-HPLC)
